Results from the DeepSol protein solubility set.

Test: soluble on expression in E. coli; label from the status in PepcDB or PDB records

Sequence	soluble on expression in E. coli
MGSDKIHHHHHHMKLGVFTVLYGNLSFTEMLDKVKGAGVQAVEIGTGGYPGDAHCPRQELLTSAEKRKRYQEELEQRGLLLGSFSCHGNPLSPDEAFRKESDQALRETIELAGKMNVPVVNCFSGTAGDHEGAKYPNWPVAPWPNEYRHILEWQWEEKLIPYWKEIGEWAETHGVKVALELHGGFLVHTPYTLLTLRKATSPAIGANLDPSHLWWQGIDPVAAIKILGREGAIHHFHAKDTFIDQEQVNMYGLTDMQPYTHIQTRAWNFRSVGCGHDLHEWTQMISALRTYGYDHVISIEHEDPLMSIDEGFETAVRNLKPLLIKEKPTEMWWA	not soluble
MGSDKIHHHHHHMKLIATDMDGTLLNDERKISKENAEAIKAAQQDGIHVVVATGRDFKEASMPLKEAGLTCPILCVNGAEERSANGELIHAVSLAKNEALTILDILTAADVYFEVYTNRGAFTDDYEKGLEIVIDVLQSAGSDDSYEKMREIAKHRFESGAVQLTEDYTKLIDSTAVYKFLAFSRDETKRQAAKDDLEKKDVFSVSASASDNLEITHWQAQKGIALRRLAERLGINSDDVMAIGDNLNDVSMLKYAGTAVAMENGEAEVKQLADFVTASNEDNGVAKAINKWLK	not soluble
MGSDKIHHHHHHMKLNRIPVVFILVLQFLSCMRKDEVLSTDPSDRLEFSEDTVFFDTLFSSVGSITKRLLVYNPGKNKIRISSVTLAGGSNSAYSVIVNGLNGPSISDIDIRGNDSIYVLVKVLIDPSNQDLPFLVSDSILFYTNTNRQKVLLSAYGQDAHFFGKESIACDAVWVNDKPYVLYDTLQVNTGCTLTIQPGCKIYFHTAAALNVRGTLIAQGSSSEPLLFASDKLSKTAQDDRGQWGGLIFQSSSSGNVISWATIRNSSTAIKLFPVIDADTIAELSLDHTFLLHASVRLIDAQEVDLAGSNLVLSDCPKALLKHTAGCGVWKHCTFANYSSGFFREETNLVLGSNMGSLKMYVLNSILWGDKSNEVTANNTPSLSLQSCIWRSAYMGTNTNVITSNPLFSKPSAFDFSLTAGSSAIDLCTGVGVPDDIAAGNRDSTPDAGAYEFK	not soluble
MGSDKIHHHHHHMKLPPLQIGDLKADIPIIQGGMGVGISRSSLASAVANCGGVGTISGVQIGFDEPDFETNTFNANIRALNKHIKKAKQESKRGIIAVNFMVAMNDYDKYVKSAVDAGADLIVSGAGLPTALPKIVEGSKVKIAPIVSSPKAASVICKMWDKHHGRIPDLIVVEGPEAGGHLGFKAEQVKGSHEELSDILTGVLTAIKPFEEKHGVKIPVVCGGGVFYGKDIAKYIKLGASGVQMATRFIATEECDANLNYKNVYVNCKEDDIKIVKSPVGMPGRAISNKFVQSNDKNITITKCYNCLKPCNPKDTPYCISKALINAVNGNVDEALLFTGAKSYKIDKIVKVKELINELISDAECEF	not soluble
MGSDKIHHHHHHMKLSDFIKTEDFKKEKHVPVIEAPEKVKKDEKVQIVVTVGKEIPHPNTTEHHIRWIKVFFQPDGDPYVYEVGRYEFNAHGESVQGPNIGAVYTEPTVTTVVKLNRSGTIIALSYCNIHGLWESSQKITVEE	soluble
MGSDKIHHHHHHMKLTAQIHIEKMAYELRDHAHAVIKNVLLMSNISTLSLQLAMRELAQHSRVALHFHPDQIDNRGLTVVDGLLRDGVYKSQFETHVSNGHLSPELGGSRDHWENQLFGHSYSGIKHRPKYGALDFGLCPLGPAPRFGSCYLVTHPQILSRCTFSYMDSHRLPKEKGTIKCFDAILAALLSESFERQYALGVSGLKPSKLIEHFSQHLTDDISRRFDLVPSGNLDHYIEAQIHGDVSLDQDIAILVADPSYMGTAIGDSLIALCHEYGIELHWHQGRQINVAQIPDDFRGAAMPILAQSLAENELINAEIIGRAAYQLQKQPASWSERGAHSKKRQDLKLLWHVLVKYGESTGQ	not soluble
MGSDKIHHHHHHMKLTIAGDSHGKYMVAILEGLPSGIRVDEELIRRDLFRRRNCYGRGKRMKMEEDAFEIVSGLWKGITTGAPVTILIPNRAGNPVKDVRSVPRPGHIDYAAWVKYKLPDLNIYVERSSARWTVALTAAGSLLKSLLKEFGIEVLGFVTRLGNVEARDIPGDFEELKRRRDESVVFCPDPEATKEMVAEIDRAKEEGNTLGGKVKVIARGVPAGIGSYSDLFKKLDSKIGSLFFAIPAVKGVVIGSEEMWYGFDYLDEFELEDGKIKRKTNNLGGIEGGITNGEDVWVNVSVKPIPTTGKPLKSVDLRTMEPAKTPYVRSDVTAVPPASVVCEAALAVVISDALLEHLGDGNIDDLKRRFENENLPRWNDGFWKEHYR	not soluble
MGSDKIHHHHHHMKLVSLRLEEGLIEKIDEVARKTLQSRSEIIRSSIALYLSLLENIGFYFKPSLPMKNVDVYEERNAVNVDLGNLTSVSVLSVSYGGVGELELDFRKDLGFVAEVMANQVAVETCCRFITPLLVMLTSTCEFLYTHTFFRMFSEAIRERMKVRTMLAGYEEFFETKQSGFVATVVGLRDMSTRNSPRRGDRIYFFGNAVSGAELSEEELLDMADVERLVGLVKEGKASAIFPVKSGGLKEVADYAAALAGGKAMLFEKRGGCPATAIVLTSAEDLSGYGCELVGEIL	not soluble
MGSDKIHHHHHHMKLYVSFAARIRAMIDEGVLRPGDKIFSVRQASQKYGLSISTVLRGYLLLEQEGIISSHPQSGYYVTPRKRLQRHETSPLSKDINLSEVDASKLVLTTLKSIREFGTVPLGSPFPDPQLFPLKKIHQYEKALTDDEGEWGVLSDLPPGNEMLRQQIARRYLANGMDVSPDDIVITHGATEAITLCLQAVAKAGDVIALESPGYYALAHTVERLGMKVAELRTDPDSGIDLDALRATAGNVRIAAVILTANFQNPLGFVMPDAKKQALVAFLEEQQIPLIEDDVYGELYFSETAPKPAKAFDRSGLVLHCASFSKSLAPGYRVGWTVAGRYRQEVERLMFLNSLSMPSAPQIAIAKFMQRDSFERHLKQLRHTLRSQYVLIRNVIEESFPAGTQLSAPKGGYVIWVNLPAPLDALKLYRAAIDNGITVAPGTIFSRKKDLTHYIRLNFSHLWTLAIEQAVRQVGALACGMLADAGNGEA	not soluble
MGSDKIHHHHHHMKMNIPVIFQFLKDLSANNNREWFNEHRSEYEVARAEFDNFLATVIARISLFDETIRGIQPKDCTYRIYRDTRFSADKTPYKIHFGGYINAKGKKSDHCGYYVHLQPDGSMLAGGSLCLPPNVLKAVRQAIYDNVEEYISIVEDPEFKKYFPVVGEDFMKTAPKGFPKDFKYIDYLKCRQFVCSYLVPDDFFTRADMMEQIEKAFRQFKRFADFINYTIDDFE	not soluble
MGSDKIHHHHHHMKNNRINIHSQQYMETMARLMSEALESPEGMRALAAAIAAPIEQEIKRKEISSLLLTRHTLPKGERPIYQKKPTVKAHWISKDGEAQEQELGKDEVEFPTNRIHSNPMVDISVLKHGNIGTLMDIQTGAASSIRKEMDSRTITVISSAIPAANTVEVTGDKVTEEALNEAISIIEDLELSVKYIVLRGRRFNDMRSWNLDPQTKLELRQKGVIKNYGTGGILLTAAMPMDEIIIVPDEEVGKLPVRENLKTESIDQKTRFKTGWLVWSEIGQGITRPDILAKVKLVP	not soluble
MGSDKIHHHHHHMKNTPIERNVIDETINEFQIVDFSKATIREVKAIASKAEAVSGVEFIKMEMGVPGLPASAVGVKAEIEALQNGIASLYPDINGLPELKKEASDFIKAFINVDLSPEGCVPVTGSMQGTFASFLTCSQCDEKKDTILFIDPGFPVQKQQLVVMGQKYETFDVYDYRGDKLKEKLESYLRKGNISAIIYSNPNNPSWICLKDEELRIIGELATQYDVIVLEDLAYFAMDFRQDLSTPYQAPFQPSVAHYTDNYVLLISGSKAFSYAGQRIGVSCISDKLYHRSYPGLTKRYGGGTFGTVFIHRVLYALSSGTSHSAQYAMAAMLKAANEGQYNFLSEVKVYGDRAQKLKEIFLRHGFYLVYDNDLGDPIADGFYFTIGYPGMTSGELAKELMYYGVSAISLVTTGSHQEGLRACTSFIKDHQYAQLDERMKLFAEHHPIA	not soluble
MGSDKIHHHHHHMKQEVKGVQGQEYEIGLTVGDNRSDIFTFVISPESQIRKWEYVYIKAGETNLLGRIEDLLSKSDLLNDRMDYESVKKYTTSNIKDNVDICVVKIIGAVKDGIISRSRYLIRPGQPVFRATKEMLESIFKFDDQRSLEIGYLADQPDVKIFANINGLRRHLSIIAQTGAGKSHTAGVLMEELLKKGASIIVLDPHADYVLMKNSDKAIYRDNIKVFRTPMSTGRYTAKLGKVDEFTIKFQDLNDEEVREIMGIHENFVNQSKIVKDVMEKLTGRKDVDEFIQKSEQIDTEKRIAARIKYLKKIKAIFGDKTTDVSEYLAPSRMSVIDLSGLDQSLANYFAYKVISQAYDAKVTGSFEYPVFLFIEEAHNFAPPMKVKGSGVSQMLYDTIKKIAAEGRKFGIFLVIITQRPGKIDQDVLSQCNSQIILRITNPSDQKAILESSENISESLMSDLPSLDVGEAIIVGEIVKMPVIAKIRQRETEEGGLDVDIVEMLQKARMEAEKRNDPRAIVENVKKLME	not soluble
MGSDKIHHHHHHMKQGSLFENSQRNTPLASRVRPQTLDQFVGQAHLLGPGKILRELIENDQVSSMIFWGPPGVGKTTLAEIIARQTQATFLSFSAVDSSISKIKKIMHQAEADREIGEQTIVFVDEIHRFNKAQQDAFLPYVERGSIILIGATTENPSFEVNSALLSRCKVFVLKALATADIDQLLRNALTNPAGFSGRVTIGDAELRAIAEFANGDARMALNTLEMAVLNGDKQGDQVTVTQADLKQLITQKFVLYDKTGEEHYNIISALHKSMRNSDPDAAIYWLTRMLSGGEDPLYVARRLVRFASEDIGLADTNALNVAINVFQACQFLGMPECNVHLVEAVTYLSLAPKSNAIYKASQAAQKDVQQTRDEPVPLQLRNAPTKLMKDLGYGADYQYAHESAAKLTTMQTLPEALRGHVYYEPTEQGREGRFKARLAEIKRWQQQHRD	not soluble
MGSDKIHHHHHHMKQTDVVVIGSGVGGLSCAALLARYGFDVTVCESHSIPGGAAHGFERQGFKFDSGPSLYSGLSYSPSVNPLRQVLDAVGVDLPCVTYDTWGCCLPEGDFDAAVGAEQFCEVLGRLRGEAAVAEWRRLQQVMTPLAQAAIALPPAALRWDIGAALTIGRFAPTLAKQSANFFKLTGPFSRIMDGVVHDPFISNWLNLLCFLLSGLPASGTNAAEVAFMFADWYRPGVALDYPIGGSGALVNALVEGFKKHGGELLLHTHVEQVLVEGNKAAGVRLGDGQEIRARRAVVSNASVWDTLKLLPEGAVSQKFRSQRQATPECDSFMHLHLGINAQGLPPDLACHYIVVNDWELEITAPQNVILVSIPSILDPSLAPQGKHVIHVYTPGNEPYTLWQGMDRRSQEYEQQKRSRAEVMWQAVERIIPDIRSRCEIQLVGTPLTHERFLRRYRGSYGPAISAASGLFPGHGTPLPGLMCCGDSTFPGIGLPAVAASGMIVANTLAPVSQHLAMLDRVGL	not soluble
MGSDKIHHHHHHMKRLSLLERSRLPTNDLGNARRLFEAANGRLLWLADGAGGKGCWIAFDGIRWSADEGPMRALAFAQKAAVEICDEAHALRECTADELAEVYGRKFSKEMAEERAGQLWTWSIKSGDSAKTTAMQNQFKGLRDGDEGPFVTQVWQRDFDAQPMAYHCSNGTLRFVQDDAGTWSHVFEKGHRPDDRFMQVANVAYDAAAKAKAWIERMEVMHHDPVQRTALQRIYGMTLTALISDQAFYIFQGKGQDGKSVTNDVVCQLHGMYARKADPKTFLEGPTQQSSGPQSDIVRLAGDVRLVVMDEPKKNSTWDGQKIKQATGSEMIARGVHATTELSFTPHWQLIAECNGLPKAPSDDRGFRRRFKLYPWVVQFGVTPGVADEPVHLVKARLIGEGSGVLNWMIKGCVEWLNERVVPEPEAAKRATASFWSASSAMGEWIASHCDLSDPEAREEATPLYKAFRQFCIDRGDDETKIITQTTFGRQLNDAQIYRVPNNSTGKVERVGIRLKRVDELGGGALSTSGRDTFDDDVARFDADNRDPFGAP	not soluble
